We go through five molecules from paper PMC3861474 (PLoS ONE, 2013).

One assay has as its target T1, NAGK‑FL25‑C + PII-ST‑V (Synechococcus elongatus, UniProt P0A3F4).
T1 construct: gene glnB; same FRET complex as P6 (Cerulean on NAGK C-terminus, Strep-tag and Venus on PII C-terminus), E. coli; compound site on PII; with Acetylglutamate kinase
In words: FRET dissociation of PII - NAGK complex, […] nm ratio. It is filed as binding. Particulars: 0.1 mM ATP, 20 mM MgCl2, pH 7.5, 100 nM proteins, 30 min; competitive with ATP; a ratio, not a concentration.

The target of assay [1] is N-acetyl-L-glutamate kinase (NAGK), His-tagged wild type (Synechococcus elongatus) (UniProt Q6V1L5).
The target in assay [2] is NAGK‑FL25‑C (NAGK fused by a flexible 25-residue linker to Cerulean) (Synechococcus elongatus) (UniProt Q6V1L5).
Assay [3] concerns the target N-acetyl-L-glutamate kinase (NAGK), His-tagged wild type (Synechococcus elongatus) (UniProt Q6V1L5). The source holds these as a separate data set.
For assay [4], the target named is NAGK‑FL25‑C (NAGK fused by a flexible 25-residue linker to Cerulean) (Synechococcus elongatus) (UniProt Q6V1L5). In words: FRET or BRET; association kinetics: FRET ratio (525 nm / 475 nm emission) every 8 s, excitation 433 nm; NAGK-FL25-C preincubated at 37 °C, then PII-Venus variant added; 100 nM proteins; 0.1 mM ATP; ratio not background-subtracted (0.54 is the zero baseline).

For assay [5] the target is unchanged. The source holds these as a separate data set.
Assay [6] shares this target. In words: FRET or BRET; FRET ratio of NAGK-FL25-C + PII-ST-V after addition of 2-OG (0.8 and 1.6 mM, the highest concentrations); 0.1 mM ATP; background subtracted and normalised. A general note: In BRET a luciferase serves as donor, and the signal depends on an acceptor being close.
For assay [7] the target is unchanged. In words: FRET or BRET; FRET ratio of NAGK-FL25-C + PII-ST-V with ADP 0.25 to 8 mM and 0.1 mM ATP (ADP/ATP ratio about 80 for the maximal drop); background subtracted and normalised.

Chain of NAGK‑FL25‑C (NAGK fused by a flexible 25-residue linker to Cerulean) (Synechococcus elongatus) (Q6V1L5 whole entry, the tested form may be a part): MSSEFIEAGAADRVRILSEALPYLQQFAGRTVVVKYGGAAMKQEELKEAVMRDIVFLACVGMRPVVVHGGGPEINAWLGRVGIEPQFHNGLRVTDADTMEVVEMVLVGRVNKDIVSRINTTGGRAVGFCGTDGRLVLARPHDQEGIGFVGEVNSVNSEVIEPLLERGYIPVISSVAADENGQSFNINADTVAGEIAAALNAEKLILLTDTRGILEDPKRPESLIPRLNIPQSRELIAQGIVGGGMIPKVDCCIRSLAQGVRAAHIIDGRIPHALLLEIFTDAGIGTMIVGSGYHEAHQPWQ
Chain of N-acetyl-L-glutamate kinase (NAGK), His-tagged wild type (Synechococcus elongatus) (Q6V1L5 whole entry, the tested form may be a part): as above
T1 sequence (P0A3F4 whole entry): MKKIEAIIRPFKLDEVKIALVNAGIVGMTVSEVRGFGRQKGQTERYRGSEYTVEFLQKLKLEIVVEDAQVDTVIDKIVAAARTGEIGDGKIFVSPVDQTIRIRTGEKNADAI
T1 sequence (Q6V1L5 whole entry partner): as the sequence (Q6V1L5 whole entry, the tested form may be a part) above

`Nc1ncnc2c1ncn2[C@@H]1O[C@H](COP(=O)(O)OP(=O)(O)O)[C@@H](O)[C@H]1O` [ADP]: on NAGK‑FL25‑C + PII-ST‑V, the “IC50 (ADP/ATP ratio)” value is ~ 10 ADP/ATP ratio.
The molecule “PII signal transduction protein, wild type (from UniProt P0A3F4 1-112) (natural protein)” yielded a relief of NAGK from arginine inhibition by PII: fold increase of the IC50 of arginine in the enzyme assay in assay [1] of 25 times. Also, in assay [2], the Kcat of NAGK activity in the presence of PII (NAGK-FL25-C alone 41.36 s^-1) was 128 s⁻¹ and the Kcat/Km of NAGK activity in the presence of PII (NAGK-FL25-C alone 1.4E+04) was 240000 M⁻¹ s⁻¹. In assay [3], the Kcat of NAGK activity in the presence of PII (coupled NADH oxidation assay; NAGK-wt alone 38.8 s^-1) was 119 s⁻¹ and the Kcat/Km of NAGK activity in the presence of PII (NAGK-wt alone 1.2E+04) stood at 180000 M⁻¹ s⁻¹.
Take “PII-E85A‑ST‑V (PII E85A, Strep-tag as linker, Venus) (from UniProt P0A3F4 1-112) (natural protein)”: the maximum FRET ratio (525 nm / 475 nm; zero baseline 0.54) in assay [4] stood at 0.6.
Molecule “PII-S49G‑ST‑V (PII S49G, Strep-tag as linker, Venus) (from UniProt P0A3F4 1-112) (natural protein)” had a partial relief of NAGK from arginine inhibition by PII: fold increase of the IC50 of arginine in the enzyme assay in assay [5] of 8.5 times. In assay [2], the Kcat of NAGK activity in the presence of PII (NAGK-FL25-C alone 41.36 s^-1) amounted to 99.6 s⁻¹ and the Kcat/Km of NAGK activity in the presence of PII (NAGK-FL25-C alone 1.4E+04) was 250000 M⁻¹ s⁻¹. Moreover, in assay [3], the Kcat of NAGK activity in the presence of PII (NAGK-wt alone 38.8 s^-1) was 96.8 s⁻¹ and the Kcat/Km of NAGK activity in the presence of PII (NAGK-wt alone 1.2E+04) came out at 190000 M⁻¹ s⁻¹. In addition, the maximum FRET ratio (525 nm / 475 nm; zero baseline 0.54) in assay [4] is 0.8.
“PII-ST‑V (PII, Strep-tag as linker, Venus) (from UniProt P0A3F4 1-112) (natural protein)”: in assay [2], the Kcat of NAGK activity in the presence of PII (NAGK-FL25-C alone 41.36 s^-1) came out at 134 s⁻¹ and the Kcat/Km of NAGK activity in the presence of PII (NAGK-FL25-C alone 1.4E+04) was found to be 210000 M⁻¹ s⁻¹. In assay [3], the Kcat of NAGK activity in the presence of PII (NAGK-wt alone 38.8 s^-1) was found to be 123 s⁻¹ and the Kcat/Km of NAGK activity in the presence of PII (NAGK-wt alone 1.2E+04) worked out at 180000 M⁻¹ s⁻¹. Besides, in assay [6], the steady state FRET level above background with 0.8 and 1.6 mM 2-OG is 10%. The maximum FRET ratio (525 nm / 475 nm; zero baseline 0.54) in assay [4] turned out to be 1.35. For the same molecule, the FRET level above baseline at the maximal drop (ADP/ATP ratio of about 80) in assay [7] came to 10%.
